Experimental findings from patent publication US20050100554A1 (published 2005) are described below.

The target of assay [1] is T1, Human Papillomavirus 1a L1 (Human Papillomavirus 1a, UniProt P03099 1-508).
T1 construct: also called HPV 1a L1; cbe_252016
T1 sequence: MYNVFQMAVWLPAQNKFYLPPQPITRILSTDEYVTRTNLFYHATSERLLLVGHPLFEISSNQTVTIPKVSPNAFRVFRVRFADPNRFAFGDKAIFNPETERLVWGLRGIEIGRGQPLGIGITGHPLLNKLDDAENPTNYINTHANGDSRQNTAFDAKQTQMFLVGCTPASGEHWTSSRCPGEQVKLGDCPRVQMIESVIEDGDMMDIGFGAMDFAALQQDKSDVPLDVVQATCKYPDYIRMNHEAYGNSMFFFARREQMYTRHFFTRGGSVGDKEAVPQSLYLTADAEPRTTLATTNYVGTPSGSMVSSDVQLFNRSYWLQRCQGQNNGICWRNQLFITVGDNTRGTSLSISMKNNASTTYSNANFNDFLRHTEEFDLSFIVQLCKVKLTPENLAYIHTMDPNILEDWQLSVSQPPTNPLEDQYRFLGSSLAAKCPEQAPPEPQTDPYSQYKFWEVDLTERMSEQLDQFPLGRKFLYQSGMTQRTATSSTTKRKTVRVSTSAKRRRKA
Nature of the assay: Y2H; INT ID 439.

The target of assay [2] is T1, Human Papillomavirus 1a L1. Description: Y2H; INT ID 438.
Assay [3] has as its target T2, Homo sapiens QUAKING isoform 5 (QUAKING) (human, UniProt Q96PU8 5-341).
T2 construct: also called cbe_3810032
T2 sequence: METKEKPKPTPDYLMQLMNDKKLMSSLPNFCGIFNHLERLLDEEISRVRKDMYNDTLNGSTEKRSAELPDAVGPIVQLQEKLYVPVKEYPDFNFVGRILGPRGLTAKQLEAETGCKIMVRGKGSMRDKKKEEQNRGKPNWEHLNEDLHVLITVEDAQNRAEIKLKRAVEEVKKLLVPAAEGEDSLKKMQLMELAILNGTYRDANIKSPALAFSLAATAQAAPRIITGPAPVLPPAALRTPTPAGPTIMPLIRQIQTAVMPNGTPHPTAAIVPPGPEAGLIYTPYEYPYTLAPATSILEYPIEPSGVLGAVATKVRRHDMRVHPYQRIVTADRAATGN
Nature of the assay: Y2H; INT ID 431.

Assay [4] has as its target T3, tissue factor pathway inhibitor (lipoprotein-associated coagulation inhibitor) (human, UniProt P10646 29-304).
T3 construct: also called TFPI; cbe_3834015
T3 sequence: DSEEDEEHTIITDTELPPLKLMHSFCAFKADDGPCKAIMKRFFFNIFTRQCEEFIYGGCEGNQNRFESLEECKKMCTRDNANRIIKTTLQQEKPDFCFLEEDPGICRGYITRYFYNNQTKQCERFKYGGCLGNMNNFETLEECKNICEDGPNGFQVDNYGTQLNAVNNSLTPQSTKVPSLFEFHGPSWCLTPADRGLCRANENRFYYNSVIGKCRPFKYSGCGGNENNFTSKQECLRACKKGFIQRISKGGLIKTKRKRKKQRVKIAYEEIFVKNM
Nature of the assay: Y2H; INT ID 309.

Assay [5] addresses T4, adaptor-related protein complex 2, mu 1 subunit (human, UniProt Q96CW1 1-435).
T4 construct: also called AP2M1; cbe_3789063
Description: Y2H; INT ID 430.

Assay [6] deals with T5, phosphoglycerate mutase 1 (brain) (human, UniProt P18669 2-254).
T5 construct: also called PGAM1; cbe_3820530
T5 sequence: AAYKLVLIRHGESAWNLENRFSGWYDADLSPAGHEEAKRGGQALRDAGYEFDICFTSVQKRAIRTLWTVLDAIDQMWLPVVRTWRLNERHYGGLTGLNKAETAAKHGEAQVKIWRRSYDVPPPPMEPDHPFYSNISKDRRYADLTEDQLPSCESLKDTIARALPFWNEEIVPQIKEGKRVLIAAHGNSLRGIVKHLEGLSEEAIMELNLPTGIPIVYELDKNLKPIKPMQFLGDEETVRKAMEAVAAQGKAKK
Description: Y2H; INT ID 432.

Another assay addresses T6, RBP4 (human, UniProt P02753 19-201).
T6 construct: also called cbe_4265947
Description: Y2H; INT ID 433.

Assay [7] has as its target T1, Human Papillomavirus 1a L1. Nature of the assay: Y2H; INT ID 440.
A further assay addresses T7, PSMC1 (human, UniProt P62191 2-440).
T7 construct: also called proteosome 26S subunit; proteosome subunit PMSC1
Description: Y2H (told in text).

A further assay concerns the target T8, STX4A (human, UniProt Q12846 1-297).
T8 construct: also called syntaxin 4; cbe_4270186
T8 sequence: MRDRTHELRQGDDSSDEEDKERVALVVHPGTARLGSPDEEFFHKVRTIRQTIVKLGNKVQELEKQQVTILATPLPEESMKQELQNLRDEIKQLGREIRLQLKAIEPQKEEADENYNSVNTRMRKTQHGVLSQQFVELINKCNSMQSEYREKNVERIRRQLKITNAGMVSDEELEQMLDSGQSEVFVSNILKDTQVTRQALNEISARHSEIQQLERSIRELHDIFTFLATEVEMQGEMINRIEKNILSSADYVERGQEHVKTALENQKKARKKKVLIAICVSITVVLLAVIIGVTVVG
Description: Y2H (told in text).

The target in another assay is T9, RPS26 (human, UniProt P62854 2-115).
T9 construct: also called cbe_4270015
Nature of the assay: Y2H; INT ID 99.

The next assay deals with T10, PTPN2 (human, UniProt P17706 1-415).
T10 construct: also called cbe_2576474
T10 sequence (looked up): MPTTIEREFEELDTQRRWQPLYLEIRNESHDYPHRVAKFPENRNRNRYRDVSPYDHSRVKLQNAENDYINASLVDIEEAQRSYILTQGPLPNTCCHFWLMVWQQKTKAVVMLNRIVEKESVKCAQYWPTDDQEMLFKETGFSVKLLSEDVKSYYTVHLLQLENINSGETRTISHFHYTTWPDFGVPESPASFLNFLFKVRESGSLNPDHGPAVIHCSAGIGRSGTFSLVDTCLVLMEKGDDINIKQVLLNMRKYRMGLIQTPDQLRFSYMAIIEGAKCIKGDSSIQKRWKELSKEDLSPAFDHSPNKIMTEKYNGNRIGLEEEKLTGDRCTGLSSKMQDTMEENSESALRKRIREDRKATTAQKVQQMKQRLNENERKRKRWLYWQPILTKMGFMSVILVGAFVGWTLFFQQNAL
Description: Y2H; INT ID 160.

Assay [8] deals with T11, exportin 1 (CRM1 homolog, yeast) (human, UniProt O14980 1-1071).
T11 construct: also called XPO1; cbe_3621798
T11 sequence (O14980 whole entry): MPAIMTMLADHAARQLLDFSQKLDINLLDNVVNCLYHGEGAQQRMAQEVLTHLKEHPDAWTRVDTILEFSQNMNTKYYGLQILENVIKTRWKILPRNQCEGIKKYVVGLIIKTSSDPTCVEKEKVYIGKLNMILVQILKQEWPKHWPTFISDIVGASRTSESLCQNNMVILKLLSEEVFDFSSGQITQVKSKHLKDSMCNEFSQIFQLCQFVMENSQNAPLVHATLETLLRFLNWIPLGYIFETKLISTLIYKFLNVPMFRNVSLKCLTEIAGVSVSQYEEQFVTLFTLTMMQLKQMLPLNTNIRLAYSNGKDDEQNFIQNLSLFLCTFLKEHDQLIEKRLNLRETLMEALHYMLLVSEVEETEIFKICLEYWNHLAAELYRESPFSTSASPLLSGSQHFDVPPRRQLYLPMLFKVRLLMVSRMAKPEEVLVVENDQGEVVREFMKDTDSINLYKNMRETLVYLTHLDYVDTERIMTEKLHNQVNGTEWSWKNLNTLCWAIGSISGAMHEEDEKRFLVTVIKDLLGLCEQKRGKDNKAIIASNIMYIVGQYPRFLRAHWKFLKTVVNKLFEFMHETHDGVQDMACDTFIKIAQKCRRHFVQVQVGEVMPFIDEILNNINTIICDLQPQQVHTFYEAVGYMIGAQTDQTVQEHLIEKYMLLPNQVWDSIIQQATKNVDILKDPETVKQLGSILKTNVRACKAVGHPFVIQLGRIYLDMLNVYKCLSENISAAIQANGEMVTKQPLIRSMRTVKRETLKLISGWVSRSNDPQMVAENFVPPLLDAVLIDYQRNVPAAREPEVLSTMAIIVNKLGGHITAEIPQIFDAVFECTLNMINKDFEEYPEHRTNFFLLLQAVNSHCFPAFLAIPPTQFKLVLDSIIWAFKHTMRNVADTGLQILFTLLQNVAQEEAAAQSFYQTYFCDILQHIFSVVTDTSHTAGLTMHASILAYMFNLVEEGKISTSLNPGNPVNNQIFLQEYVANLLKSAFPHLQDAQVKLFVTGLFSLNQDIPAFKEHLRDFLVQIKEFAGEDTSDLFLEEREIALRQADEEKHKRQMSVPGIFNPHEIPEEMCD
Description: Y2H; INT ID 424.

The next assay addresses T12, hexokinase 1 (human, UniProt P19367 22-917).
T12 construct: also called HK1; cbe_3665307
T12 sequence: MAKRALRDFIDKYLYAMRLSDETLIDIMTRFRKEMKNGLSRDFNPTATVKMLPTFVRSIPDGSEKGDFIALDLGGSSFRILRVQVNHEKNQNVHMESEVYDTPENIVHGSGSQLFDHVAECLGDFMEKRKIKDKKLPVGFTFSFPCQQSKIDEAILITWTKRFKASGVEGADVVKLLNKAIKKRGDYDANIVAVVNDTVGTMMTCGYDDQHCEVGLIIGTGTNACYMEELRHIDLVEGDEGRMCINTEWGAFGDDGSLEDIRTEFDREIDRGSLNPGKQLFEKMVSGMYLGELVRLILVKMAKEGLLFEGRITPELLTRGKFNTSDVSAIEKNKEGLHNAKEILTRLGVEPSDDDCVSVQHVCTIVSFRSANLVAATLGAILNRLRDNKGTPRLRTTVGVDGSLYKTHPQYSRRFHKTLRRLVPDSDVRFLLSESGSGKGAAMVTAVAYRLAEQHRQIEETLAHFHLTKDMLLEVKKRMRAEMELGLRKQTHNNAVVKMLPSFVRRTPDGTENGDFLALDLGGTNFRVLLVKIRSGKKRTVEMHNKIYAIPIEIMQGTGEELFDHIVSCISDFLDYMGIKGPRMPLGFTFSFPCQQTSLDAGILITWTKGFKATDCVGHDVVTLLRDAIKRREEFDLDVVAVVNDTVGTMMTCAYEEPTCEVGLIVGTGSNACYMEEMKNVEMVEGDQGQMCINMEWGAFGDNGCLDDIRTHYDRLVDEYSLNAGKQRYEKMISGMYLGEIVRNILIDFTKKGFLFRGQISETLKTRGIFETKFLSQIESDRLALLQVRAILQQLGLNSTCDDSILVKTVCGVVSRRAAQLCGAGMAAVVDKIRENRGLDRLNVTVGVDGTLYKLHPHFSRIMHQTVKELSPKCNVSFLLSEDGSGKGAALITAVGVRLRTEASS
Description: Y2H; INT ID 425.

The target in the next assay is T13, ANXA2 (human, UniProt P07355 2-339).
T13 construct: also called cbe_4267867
T13 sequence (P07355 2-339 limits assumed): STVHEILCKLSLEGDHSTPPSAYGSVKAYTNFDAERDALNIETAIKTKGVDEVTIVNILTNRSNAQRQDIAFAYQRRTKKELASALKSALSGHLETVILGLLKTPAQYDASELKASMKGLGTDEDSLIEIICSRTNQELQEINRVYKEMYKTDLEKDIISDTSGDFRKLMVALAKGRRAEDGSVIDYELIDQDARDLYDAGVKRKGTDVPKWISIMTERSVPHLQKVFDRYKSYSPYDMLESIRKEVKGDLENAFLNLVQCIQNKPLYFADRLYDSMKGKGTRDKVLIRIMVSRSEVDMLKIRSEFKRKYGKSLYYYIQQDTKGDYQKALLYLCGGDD
Description: Y2H; INT ID 426.

T4 sequence (Q96CW1 whole entry, one chain of several): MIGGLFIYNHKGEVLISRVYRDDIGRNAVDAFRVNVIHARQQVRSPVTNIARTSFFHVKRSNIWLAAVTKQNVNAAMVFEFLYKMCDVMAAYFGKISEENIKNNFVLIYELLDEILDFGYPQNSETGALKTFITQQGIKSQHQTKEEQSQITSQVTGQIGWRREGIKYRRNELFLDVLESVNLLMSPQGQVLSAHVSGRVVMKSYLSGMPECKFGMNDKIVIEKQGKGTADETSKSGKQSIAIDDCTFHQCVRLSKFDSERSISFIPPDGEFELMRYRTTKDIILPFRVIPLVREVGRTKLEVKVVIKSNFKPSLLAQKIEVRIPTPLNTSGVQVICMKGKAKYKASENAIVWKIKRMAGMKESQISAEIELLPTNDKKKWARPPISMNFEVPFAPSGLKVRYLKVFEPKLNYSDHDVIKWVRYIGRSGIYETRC
T7 sequence (P62191 2-440 limits assumed): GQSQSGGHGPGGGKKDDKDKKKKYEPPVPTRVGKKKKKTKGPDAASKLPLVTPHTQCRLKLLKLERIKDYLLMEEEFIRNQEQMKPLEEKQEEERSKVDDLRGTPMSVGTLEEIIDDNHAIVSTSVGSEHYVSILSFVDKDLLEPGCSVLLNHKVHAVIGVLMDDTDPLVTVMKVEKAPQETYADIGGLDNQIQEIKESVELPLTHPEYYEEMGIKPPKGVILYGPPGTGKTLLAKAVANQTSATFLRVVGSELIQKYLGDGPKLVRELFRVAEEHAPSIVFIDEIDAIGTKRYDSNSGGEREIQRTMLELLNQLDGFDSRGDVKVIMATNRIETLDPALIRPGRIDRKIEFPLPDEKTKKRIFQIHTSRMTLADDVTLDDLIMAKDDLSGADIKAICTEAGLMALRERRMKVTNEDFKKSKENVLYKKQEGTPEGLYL

B1: NR1H2 (receptor)
chain: MSSPTTSSLDTPLPGNGPPQPGAPSSSPTVKEEGPEPWPGGPDPDVPGTDEASSACSTDWVIPDPEEEPERKRKKGPAPKMLGHELCRVCGDKASGFHYNVLSCEGCKGFFRRSVVRGGARRYACRGGGTCQMDAFMRRKCQQCRLRKCKEAGMREQCVLSEEQIRKKKIRKQQQESQSQSQSPVGPQGSSSSASGPGASPGGSEAGSQGSGEGEGVQLTAAQELMIQQLVAAQLQCNKRSFSDQPKVTPWPLGADPQSRDARQQRFAHFTELAIISVQEIVDFAKQVPGFLQLGREDQIALLKASTIEIMLLETARRYNHETECITFLKDFTYSKDDFHRAGLQVEFINPIFEFSRAMRRLGLDDAEYALLIAINIFSADRPNVQEPGRVEALQQPYVEALLSYTRIKRPQDQLRFPRMLMKLVSLRTLSSVHSEQVFALRLQDKKLPPLLSEIWDVHE
notes: also called cbe_4268726
Turning to B1, the binding result in assay [1] was “binds”.

B2: isovaleryl Coenzyme A dehydrogenase (enzyme)
chain: HSLLPVDDAINGLSEEQRQLRQTMAKFLQEHLAPKAQEIDRSNEFKNLREFWKQLGNLGVLGITAPVQYGGSGLGYLEHVLVMEEISRASGAVGLSYGAHSNLCINQLVRNGNEAQKEKYLPKLISGEYIGALAMSEPNAGSDVVSMKLKAEKKGNHYILNGNKFWITNGPDADVLIVYAKTDLAAVPASRGITAFIVEKGMPGFSTSKKLDKLGMRGSNTCELIFEDCKIPAANILGHENKGVYVLMSGLDLERLVLAGGPLGLMQAVLDHTIPYLHVREAFGQKIGHFQLMQGKMADMYTRLMACRQYVYNVAKACDEGHCTAKDCAGVILYSAECATQVALDGIQCFGGNGYINDFPMGRFLRDAKLYEIGAGTSEVRRLVIGRAFNADFH
notes: also called IVD; cbe_3800240
In the case of B2, in [2], the binding result is listed as “binds”.

B3: Human Papillomavirus 1a E7 (other)
chain: MVGEMPALKDLVLQLEPSVLDLDLYCYEEVPPDDIEEELVSPQQPYAVVASCAYCEKLVRLTVLADHSAIRQLEELLLRSLNIVCPLCTLQRQ
notes: also called HPV 1a E7; cbe_251925
Regarding B3, the binding result (in [3]; in assay [4]; in assay [5]; in assay [6]; in the assay with RBP4) was “binds” each time.

B4: SCGB1A1 (other)
chain: EICPSFQRVIETLLMDTPSSYEAAMELFSPDQDMREAGAQLKKLVDTLPQKPRESIIKLMEKIAQSSLCN
notes: also called cbe_4296923
Regarding B4, in [7], the binding result is recorded as “binds”.

B5: Human papillomavirus 16 E6 (other)
chain: MHQKRTAMFQDPQERPRKLPQLCTELQTTIHDIILECVYCKQQLLRREVYDFAFRDLCIVYRDGNPYAVCDKCLKFYSKISEYRHYCYSLYGTTLEQQYNKPLCDLLIRCINCQKPLCPEEKQRHLDKKQRFHNIRGRWTGRCMSCCRSSRTRRETQL
notes: also called HPV 16 E6; HPV16 E6
For B5, the binding result with PSMC1, with STX4A, in the assay with RPS26 and with PTPN2 was “binds” each time.

B6: Human Papillomavirus 1a E6 (other)
chain: MATPIRTVRQLSESLCIPYIDVLLPCNFCNYFLSNAEKLLFDHFDLHLVWRDNLVFGCCQGCARTVSLLEFVLYYQESYEVPEIEEILDRPLLQIELRCVTCIKKLSVAEKLEVVSNGERVHRVRNRLKAKCSLCRLYAI
notes: also called HPV 1a E6; cbe_251919
With B6, the binding result (in assay [8]; with hexokinase 1; with ANXA2) was “binds” throughout.
